Values of other authors, collected in publication PMC7772776.

Experiments:
Cys46 = Cys46 (UniProt position 47, DFTFVCPTELG)
Cys125 = Cys125 (UniProt position 126, PGDFGCDAQGA)
Cys87 = Cys87 (UniProt position 87, RLGRICLDVLK)
Cys283 [1] = target: Cys283 (UniProt position 283, GYVLTCPANLG)
Cys124 = Cys124 (UniProt position 125, HPGDFCADAQG)
Cys25 [2] = target: Cys25 (UniProt position 158, GSCGSCWAFSA)
Cys283 [3] = target: Cys283 (UniProt position 283, GYVLTCPSNLG)
Cys88 = Cys88 (UniProt position 88, ADGSICLDILQ)
Cys145 = Cys145 (UniProt position 145, PILIPCHRVVC)
Cys102 = Cys102 (UniProt position 102, KFLTPCYHPNV)
Cys72 = Cys72 (UniProt position 72, VFGMGCFWGAE)
Cys25 [4] = target: Cys25 (UniProt position 157, GSCGSCWAFSA)
Cys29 = Cys29 (UniProt position 108, GSCGSCWAFGA)

Q: Which pKa (Cys46) does the source give for “Alkyl hydroperoxide reductase C (AhpC) (Salmonella (article gives genus only; Salmonella typhimurium inferred))” here?
A: 5.9

Q: With “Myoglobin A125C (Mb A125C) (Physeter macrocephalus (sperm whale); A125C)” as the substance, how does the pKa (Cys125) read?
A: 8.4

Q: Which pKa (Cys87) does the source give for “Ubiquitin-conjugating enzyme Ubc13 (Saccharomyces cerevisiae)” here?
A: 11.1

Q: For “Muscle creatine kinase S285A (HMCK S285A) (Homo sapiens; S285A)”, which pKa (Cys283 [1]) is on record?
A: 6.7

Q: Which pKa (Cys124) does the source give for “Myoglobin G124C (Mb G124C) (Physeter macrocephalus (sperm whale); G124C)” here?
A: 6.5

Q: With “Papain (papaya proteinase I) (Carica papaya)” as the substance, how does the pKa (Cys25 [2]) read?
A: 3.3

Q: For “Muscle creatine kinase (HMCK) (Homo sapiens)”, which pKa (Cys283 [3]) is on record?
A: 5.6

Q: Which pKa (Cys88) does the source give for “Ubiquitin-conjugating enzyme E2 B (Ubc2b; 'Ubc2' in Table 1) (Homo sapiens)” here?
A: 10.2

Q: Which pKa (Cys145) does the source give for “O6-alkylguanine-DNA alkyltransferase (AGT) (Homo sapiens)” here?
A: 5.3

Q: For “Ubiquitin-conjugating enzyme UbcH10 C114S (Homo sapiens; C114S)”, which pKa (Cys102) is on record?
A: 10.9

Q: For “Methionine sulfoxide reductase A (MmsrA) (Mus musculus)”, which pKa (Cys72) is on record?
A: 7.2

Q: Which pKa (Cys25 [4]) does the source give for “Papaya protease omega (caricain) (Carica papaya)” here?
A: 2.9

Q: Which pKa (Cys72) does the source give for “Methionine sulfoxide reductase A E115Q (MmsrA E115Q) (Mus musculus; E115Q)” here?
A: 8.2

Q: For Cathepsin B (Rattus norvegicus), which pKa (Cys29) is on record?
A: 3.6
